Substitutions are numbered along the chain they refer to.
B1: ABDmut: ABD with Asn28 replaced by leucine, Asn42 by aspartic acid, Asn45 by aspartic acid and Asn46 by lysine (protein)
chain: MKAIFVLNAQHDEAVDANSLAEAKVLALRELDKYGVSDYYKDLIDKAKTVEGVKALIDEILAALP
B2: ABDmut29-30-33: ABDmut domain containing alanine substitutions at positions 29, 30 and 33 (protein)
chain: B1 chain with R29A, E30A, K33A
B3: ABDmut54-57-58: ABDmut domain containing alanine substitutions at positions 54, 57 and 58 (protein)
chain: B1 chain with K54A, I57A, D58A
B4: ABDmut22-25-26: ABDmut domain containing alanine substitutions at positions 22, 25 and 26 (protein)
chain: B1 chain with E22A, V25A, L26A
B5: ABDwt: Wild type Albumin Binding Protein domain from Streptococcus G148 with affinity towards human serum albumin; four asparagine residues (protein)
chain: B1 chain with L28N, D42N, D45N, K46N

Experiments:
[1] = target: T1, HSA (Homo sapiens, UniProt P02768); test: Alkaline resistance of affinity columns: HSA capacity after repeated 0.5 M NaOH washes; settings: ligand on Sepharose 4B; 15 cycles of 0.5 M NaOH wash, total exposure over 6 hours; FIG. 6
Procedure: In order to evaluate the usability of the stabilized HSA-binding protein in biotechnology, two affinity chromatography matrices were prepared; one with the unmutated protein (ABDwt) as a control and the other with the mutated ABD (ABDmut). The matrix used was Sepharose 4B (Amersham Pharmacia Biotech, Uppsala, Sweden) with carbodiimide CMC (Sigma Aldrich, Sweden) as the coupling reagent. ABDwt (4.5 mg) and ABDmut (8.5 mg) were dissolved in 9 ml water separately. 3.5 and 5.0 ml gel was added to ABDwt and ABDmut solutions respectively. Finally 0.38 g of CMC was added to the solutions and they were incubated at room temperature over night. The gels were packed on HR columns (d=5 mm, h=43 mm) and pulsed with 0.5 M ethanolamine, 0.5 M NaCl, pH 8.3 in order to inactivate the matrix and 0.1 M NaAc, 0.5 M NaCl, pH 4 in order to wash unbounded proteins out. After this, the columns were ready to use for affinity purification of HSA.
In order to explore the difference between the ABDwt column and the ABDmut column in respect of stability against alkaline treatment, both columns were repeatedly washed with 0.5 M NaOH. By using the AKTA explorer the columns were loaded with HSA, the protein was eluted by lowering the pH (Stahl et al., (1989) supra) and finally both columns were washed with NaOH. […] The flow rate used was 60 cm/h and the eluted material was collected and analyzed in each round. […]

[2] = target: T1, HSA; format: binding; settings: for Kaff (affinity constant, ratio between Kon and Koff): BIAcore 2000, HSA immobilized on CM5 chip
From the text: (§1) A BIAcore 2000 instrument (Biacore AB) was used for real time affinity analysis. HSA and IgG were immobilized on two different surfaces of a CM5 sensor chip by amine coupling to the carboxylated dextran layer. This coupling was done according to the manufacturer's recommendation (Biacore AB). The IgG surface was used as a control. The samples were run through a 0.45 μm filter and injected over the surface in a random order at a flow rate of […].
Also, an analysis of the kinetic parameters was performed for the proteins that still remained active. This was done by analysing the binding behaviour in different concentrations and thereafter calculating the binding constants by using BIAevaluation 2.1 software (BIAcore AB). The concentrations used were 40-220 nM for ABDwt, 200-600 nM for ABDmut and 800-1250 nM for the NaOH treated ABDmut.

[3] = target: T1, HSA; test: Binding characteristics (BIAcore) before and after treatment with 0.5 M NaOH for 24 hours; settings: room temperature, 800 nM on BIAcore, FIG. 5
Procedure: In order to examine the stability of ABDwt and ABDmut, the binding characteristics were analysed before and after treatment with 0.5 M NaOH in room temperature for 24 hours. Both ABDwt and ABDmut were solubilized in 1×HBS (10 mM HEPES, pH 7.4, 150 mM NaCl, 3.4 mM EDTA, 0.005% P20) to a concentration of 800 nM and analyzed on BIAcore 2000 (Biacore AB, Uppsala, Sweden). In order to determine the activity change after exposure to a very alkaline environment, the proteins were solubilized in 0.5 M NaOH. After incubation in NaOH for 24 hours, the samples were run through a NAP-10 column (Amersham Pharmacia Biotech, Uppsala, Sweden) equilibrated with 30 mM NH4Ac. The protein containing samples were lyophilized and resolubilised in 1×HBS to a concentration of 800 nM in order to be analyzed in the BIAcore 2000.
as §1

[4] = target: T1, HSA; test: HSA-binding analysis of ABDmut triple mutants on BIAcore; settings: 200 nM, 20 μl/min, immobilised HSA on CM5 chip, FIG. 7
From the text: ABDmut22-25-26, ABDmut29-30-33, and ABDmut54-57-58 proteins were produced and purified as described in Example 2. In order to analyse the binding behaviour of the different triple-mutants a BI core 2000 instrument was used. HSA was immobilised on a sensor chip surface of a CM5 sensor chip by amine coupling to the carboxylated dextran layer. As control, a sensor chip surface containing IgG was used. This coupling was done according to the manufacturers recommendation (Biacore AB). The samples of the three proteins were run through a 0.45 μm filter and injected over the surface in a random order at a flow rate of 20 μl/min. The concentration used was 200 nM and all samples were analysed three times. […] In addition, residue 62 could also be used for substitutions.

Row | Molecule | Column activity (HSA capacity) against NaOH exposure time [1] | Koff (dissociation rate) [2] | Kon (rate at which the proteins associate) [2] | Kaff (affinity constant, ratio between Kon and Koff) [2] | Affinity towards HSA after exposure to alkaline solution [3] | Ability to bind HSA (sensorgrams) [4]
1 | B1 | keeping the activity throughout the experiment | 0.0012 L/s | 1.8 × 10^4 l/Ms | 1.5 × 10^7 l/M | has the affinity preserved | –
2 | B2 | – | – | – | – | – | retain their ability to bind HSA
3 | B3 | – | – | – | – | – | retain their ability to bind HSA
4 | B4 | – | – | – | – | – | retain their ability to bind HSA
5 | B5 | – | 0.0013 L/s | 9.0 × 10^4 l/Ms | 6.9 × 10^7 l/M | loses the affinity towards HSA | –

— patent US6831161B1, “Method of affinity separation and ligands for use therein” (Affibody AB, priority 1998, dated 2004)
